Target: the molecule itself
Test: SEC + other: negative stain transmission electron microscopy; Ni-purified His-tagged protein run over Superose 6 Increase HiScale (80 ml); void (high molecular weight) fractions visualised by negative stain TEM (2% uranyl acetate), 2D classes in cryoSPARC; self-assembly into capsid-like particles

B1: recombinant mouse PNMA1, His-tagged (natural protein, UniProt Q8C1C8 1-353, looked up)
chain: MAMTLLEDWCRGMDVNSQRALLVWGIPVNCDETEIEETLQAAMPQVSYRVLGRMFWREENAKAALLELTGAVDYSLIPREMPGKGGLWKVVFKPPTSDAVFLERLHLFLAREGWTVQDVARVLGFQNPAPAPGPEMPAEMLNYILDNVIQPLVESIWYKKLTLFSGKDIPGPGEETFDSWLEHSNEIIEEWQVSDIEKRRRLMESLRGPAADVIRILKTNNAAITTAECLKALEQVFGSVESSRDAQVRFLNTYQNPGEKLSSYVIRLEPLLQKVVDKGVIDKDNVNQARLEQVIAGANHSGALRRQLWLAGAEEGPAPNLFQLLVQIREEEAKKEEEEAEAALLQLGLEGHF
notes: PNMA1, mouse, full-length Pnma1 cloned into the first cassette of a modified pET-Duet plasmid; The modified pET-Duet encodes a C-terminal 3C protease cut site followed by the His tag; no cleavage is described; source: E. coli LOBSTR (RIL plasmid), purified (Ni-Sepharose, Superose 6 size exclusion; void fractions collected); not shown: His tag, C-terminal, kept
Does B1 bind?
Result: binds

B2: recombinant mouse PNMA4, His-tagged (natural protein, UniProt Q9ERH6 1-352, looked up)
chain: MTLRLLEDWCRGMDMNPRKALLVAGIPPTCGVADIEEALQAGLAPLGEHRLLGRMFRRDENKNVALIGLTVETGSALVPKEIPAKGGVWRVIFKPPDTDSDFLCRLNEFLKGEGMTMGELTRVLGNRNDPLGLDPGIMIPEIRAPMLAQALNEALKPTLQYLRYKKLSVFSGRDPPGPGEEEFESWMFHTSQVMKTWQVSDVEKRRRLIESLRGPAFEIIRVLKINNPFITVAECLKTLETIFGIIDNPRALQVKYLTTYQKTDEKLSAYVLRLEPLLQKLVQKGAIEKEVVNQARLDQVIAGAVHKSVRRELGLPEGSPAPGLLQLLTLIKDKEAEEEEVLLQAELEGYCT
notes: PNMA4 (also called MOAP-1 or MAP-1), mouse, full-length Pnma4 cloned into the first cassette of a modified pET-Duet plasmid; The modified pET-Duet encodes a C-terminal 3C protease cut site followed by the His tag; no cleavage is described; also called MOAP-1; MAP-1; source: E. coli LOBSTR (RIL plasmid), purified (Ni-Sepharose, Superose 6 size exclusion; void fractions collected); not shown: His …
Does B2 bind?
Result: binds
